{"source": "patent US20150197564A1", "target": "hANGPTL3(17-460)-His (human) (UniProt Q9Y5C1)", "sequence (Q9Y5C1 other isoform, or with tags, fused parts or gaps)": "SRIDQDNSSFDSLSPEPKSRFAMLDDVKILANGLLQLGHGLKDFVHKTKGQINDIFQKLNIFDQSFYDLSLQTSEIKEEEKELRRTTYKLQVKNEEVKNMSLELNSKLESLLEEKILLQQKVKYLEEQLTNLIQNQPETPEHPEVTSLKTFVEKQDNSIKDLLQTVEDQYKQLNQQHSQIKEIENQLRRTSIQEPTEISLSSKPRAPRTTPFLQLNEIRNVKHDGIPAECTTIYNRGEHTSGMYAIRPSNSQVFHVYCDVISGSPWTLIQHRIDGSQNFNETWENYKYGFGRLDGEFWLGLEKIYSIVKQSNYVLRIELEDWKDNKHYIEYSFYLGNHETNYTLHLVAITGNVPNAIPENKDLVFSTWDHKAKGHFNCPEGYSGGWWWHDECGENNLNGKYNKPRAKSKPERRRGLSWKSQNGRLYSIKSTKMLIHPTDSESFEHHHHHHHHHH", "experiment": "Biacore cross-competition, 25C; first antibody at 25 µg/ml on captured antigen", "data": [{"substance": "Negative Control (Table 8) (antibody)", "values": [{"measurement": "mAb1 binding response (RU)", "value": 81, "unit": "RU"}]}]}
